Data published in US20220169747A1 (CERTIS THERAPEUTICS, published 2022).
Blank lines part the entries; values can stand above or below the binder they belong to. Bridges are numbered along the chain shown (N, C = ends).

Key:
[1] = target: T1, control irrelevant peptide H-LEEKKGNYVVTDHC-NH2 coupled to KLH (also: coupled to KLH); test: ELISA, antigen on the plate, anti-mouse Ig-alkaline phosphatase, pNPP, A405nm
T1 construct: Synthetic negative control; also called control peptide; negative control peptide-KLH
T1 peptide: H-LEEKKGNYVVTDHC-NH2
Experimental: (§1) Polystyrene 96-well plates were coated with 3% FCS in PBS for one hour at RT. A final peptide concentration of 1 mg/mL was achieved by diluting the peptide in 0.1% acetic acid. This peptide solution was further diluted to 30 μg/ml in 3% FCS-PBS. Plates were incubated with the linear or cyclic peptide immunogen coupled to KLH, HER2-ECD or negative control peptide-KLH, in dilution buffer (3% FCS-PBS) for one hour at RT. […] Following washing, plates were then incubated with anti-mouse Ig-Alkaline phosphatase (Sigma A-3688), (1:3000 dilutions) for one hour at RT.

[2] = target: T2, linear HER2 peptide immunogen H-CPLHNQEVTAEDGTQR-NH2 coupled to KLH (also: coupled to KLH); test: ELISA, antigen on the plate, antibody at 10 ug/mL, anti-mouse Ig-alkaline phosphatase, pNPP, A405nm
T2 construct: Synthetic peptide; also called linear peptide; KLH-linear peptide
T2 peptide: H-CPLHNQEVTAEDGTQR-NH2
Experimental: as §1

[3] = target: T3, cyclic HER2 peptide immunogen H-GCPLHNQEVTAEDGTQRC-NH2 coupled to KLH (human, disulfide 2-18 (inferred); also: coupled to KLH); test: as above
T3 construct: also called cyclised peptide; circularised peptide
T3 peptide: H-GCPLHNQEVTAEDGTQRC-NH2
Experimental: as §1

[4] = target: T4, recombinant ErbB3/HER3 ECD (UniProt P21860 20-643, limits assumed); test: ELISA, plate coated with recombinant HER3 ECD, anti-mouse antibody-alkaline phosphatase, pNPP, A405 nm
T4 construct: extracellular domain; also called ErbB3 ECD
Experimental: (§2) Polystyrene 96-well plates were coated with […], 3 μg/mL recombinant ErbB2 ECD, ErbB3 ECD, ErbB4 ECD or EGFR501 in PBS overnight at 4° C. The plates were blocked with 3% FCS in PBS for one hour at room temperature (RT). Plates were incubated with 10 μg/mL serially diluted purified antibody along with appropriate controls for one hour at RT. Following washing three times, plates were incubated with anti-mouse IgG AP conjugate (1:2000 dilutions) for one hour at RT.

[5] = target: T5, recombinant ErbB4/HER4 ECD (UniProt Q15303 26-651, limits assumed); test: ELISA, plate coated with recombinant HER4 ECD, anti-mouse antibody-alkaline phosphatase, pNPP, A405 nm
T5 construct: extracellular domain; also called ErbB4 ECD
T5 sequence (looked up): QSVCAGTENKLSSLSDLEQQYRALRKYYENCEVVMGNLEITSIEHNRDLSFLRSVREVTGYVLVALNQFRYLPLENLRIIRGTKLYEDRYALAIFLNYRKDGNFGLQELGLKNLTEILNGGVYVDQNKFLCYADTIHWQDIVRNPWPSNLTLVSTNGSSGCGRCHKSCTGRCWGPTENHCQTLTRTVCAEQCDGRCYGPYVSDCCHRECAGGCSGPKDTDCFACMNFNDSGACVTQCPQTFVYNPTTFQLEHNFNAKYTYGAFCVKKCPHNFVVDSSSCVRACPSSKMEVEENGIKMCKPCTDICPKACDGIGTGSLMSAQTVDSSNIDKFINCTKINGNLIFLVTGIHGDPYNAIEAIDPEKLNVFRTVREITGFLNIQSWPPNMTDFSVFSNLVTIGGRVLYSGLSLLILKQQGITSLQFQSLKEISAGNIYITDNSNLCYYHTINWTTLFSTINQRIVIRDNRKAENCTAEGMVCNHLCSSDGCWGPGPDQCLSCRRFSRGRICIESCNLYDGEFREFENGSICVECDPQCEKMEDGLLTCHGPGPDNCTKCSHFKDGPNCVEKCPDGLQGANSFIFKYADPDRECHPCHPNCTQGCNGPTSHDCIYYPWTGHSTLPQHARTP
Experimental: as §2

[6] = target: T6, recombinant sEGFR ectodomain (EGFR501) (UniProt P00533 25-645, limits assumed); test: ELISA, plate coated with recombinant sEGFR ectodomain, anti-mouse antibody-alkaline phosphatase, pNPP, A405 nm
T6 construct: extracellular domain; also called EGFR/HER1 ectodomain
Experimental: as §2

binding result [1]: no binding (tested: 10 ug/mL)
binding result [2]: binds
binding result [3]: binds
B1: mAb106 (antibody, IgG1, V domains shown)
VH: QIQLVQSGPELKKPGETVKISCKASGYTFTDYGMNWVKQAPGKGLKWMGWINTYTGKPTYDDDFKGRFAFSLETSASTAYLQINNLKNEDMATYFCARRFLNTVAGRSVYFDYWGQGTTLTVSS
VL: QIVLTQSPALMSVSPGEKVTMTCSVSSSVGSMYWYQQKPRSSPKPWIYLTSNLASGVPPRFSGSGSGTSYSLTISSMEGEDAATYYCQQWSSNPPTFGAGTKLELKR
notes: Murine monoclonal purified from hybridoma supernatant

binding result [1]: no binding (tested: 10 ug/mL)
binding result [2]: binds
binding result [3]: binds
binding result [4]: no binding (tested: 10000 ng/ml)
binding result [5]: no binding (tested: 10000 ng/ml)
binding result [6]: no binding (tested: 10000 ng/ml)
B2: mAb104 (antibody, IgG1, V domains shown)
VH: EVQLQQSGPELVKPGASVKISCKASGYSFTGYFMHWVRQSHVRSLEWIGRINPYNGDIRYNQNFKDKASLTVDKSSSTAYMELHRLTSEDSAVFYCASLNFAYWGQGTPVTVSA
VL: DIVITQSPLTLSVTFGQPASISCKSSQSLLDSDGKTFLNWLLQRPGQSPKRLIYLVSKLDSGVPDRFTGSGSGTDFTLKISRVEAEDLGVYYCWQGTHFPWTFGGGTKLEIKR
notes: as for B1
